Measured values published in US20260274928A1 (VIR BIOTECHNOLOGY, published 2026).
Substitutions are numbered along the chain they refer to. Read-outs that look alike come from different tables or passages of the source.

B1: S2K146 Fab (Fab, V domains shown)
VH: QVQLVESGGVVVQPGGSLRLSCAASGFTFHDHTMHWVRQAPGKGLEWVSLITWNGGTIHYSDSVKGRFTISRDNSKNSLYLQMNSLRTEDTALYYCAKDLGRGGWYLPSDAWGQGTLVTVSS
VL: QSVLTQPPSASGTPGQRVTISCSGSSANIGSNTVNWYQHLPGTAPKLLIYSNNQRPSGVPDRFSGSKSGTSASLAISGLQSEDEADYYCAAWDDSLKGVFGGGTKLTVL
B2: S3I2 (antibody, V domains shown)
VH: EVQLVETGGGLIQPGGSLTLSCAASGLVVSYNYMTWVRQAPGKGLEWLSVIYAGGSTFYADSVKGRFTVSRDNSNNTLYLQMNNLRAEDTAVYFCARWGQVRFTSEEAYYKYGLDVWGQGTTVTVSS
VL: DIQLTQSPSFLSASVGDRVTITCRASQGISNYLAWYQQRPGKAPKLLIFTASTLQSGVSSRFSGSGSGTEFTLTISSLQPEDLATYYCQQLNSNLQGTFGQGTRVEIK
B3: S2V29-v37.2 (antibody, V domains shown)
VH: EVQLVESGGSVVQPGRALRLSCAASGITFSSFGMYWVRQAPGKGLEWLGYIAYDGSDTYYADSVKGRFTISRDNSKNTLYLQMNSLRIEDTAVYYCAKDYYPLLSYYYGLDVWGQGTTVTVSS
VL: QSVLTQPRSVSGSPGQSVTISCTGTSSDVGAYNYVSWYQQHPGKAPKFMIYDVDQRPSGVPDRFSGSKSGNTASLIISGLQAEDEADYYCSSYAGSYIWVFGGGTQLTVL
B4: S2V29-v1.2 (antibody, V domains shown)
VH: B3 VH with Y50V, D57N
VL: B3 VL
B5: S2V29-v1.1 (antibody, V domains shown)
VH: B3 VH with Y50V, D57N
VL: B3 VL with S91C
B6: S3L17 (antibody, V domains shown)
VH: EVQLVESGGGLVQPGGSLRLSCAASEIIVSSNYMNWVRQAPGKGLEWVSVIYAGGSTFYADSVRGRFTISRDNSKNTLYLQMNSLRPDDTAIYYCARDLGPWGMDVWGQGTTVTVSS
VL: DIQMTQSPSSLSASVGDRVAITCRASHGINNDLAWYQQKPGKVPKLLIYAASTLQSGVPSRFSGSGSGTDFTLTISSLQPEDVATYYCQHYSSDPRFTFGPGTKVDIK

What was measured:
[1] = molecular target: T1, SARS-CoV-2 Wuhan-Hu-1 RBD (SARS-CoV-2 Wuhan-Hu-1, UniProt P0DTC2 328-531); assay: BLI, Fab on immobilized Wuhan-Hu-1 RBD (FIG. 25)
T1 construct: range 328-531

[2] = molecular target: SARS-CoV-2 mouse/rabbit Fc-tagged RBD (SARS-CoV-2, UniProt P0DTC2 319-541)
[3] = molecular target: SARS-CoV-2 CH.1.1 S glycoprotein (SARS-CoV-2 CH.1.1); assay: cell-based or functional assay
SARS-CoV S glycoprotein [4] = molecular target: T2, SARS-CoV S glycoprotein (SARS-CoV, UniProt P59594 14-1255); assay: cell-based or functional assay
SARS-CoV S glycoprotein [5] = molecular target: T2, SARS-CoV S glycoprotein; assay: cell-based or functional assay; remark: listed apart in the source
[6] = molecular target: T1, SARS-CoV-2 Wuhan-Hu-1 RBD; assay: RBD binding affinity (SPR, see Example 5)
SARS-CoV S glycoprotein [7] = molecular target: T2, SARS-CoV S glycoprotein; assay: cell-based or functional assay; remark: listed apart in the source

Binder	IC50 (read off the curve) [2] [µg/mL]	IC50 [3] [µg/mL]	Kd [6] [nM]	IC50 (SARS-CoV S glycoprotein [7]) [ng·mL]	further results
B1	–	–	–	–	binding result [1]: binds
B2	~0.03	–	–	–	–
B3	–	0.0089	0.16	6	FC vs S2V29-v1.2 [3]: 1.3 fold; fold improvement in neutralization (SARS-CoV S glycoprotein [4]): 100 fold; FC IC50 par/IC50 Var (SARS-CoV S glycoprotein [5]): 21.7 fold; IC50 (SARS-CoV S glycoprotein [5]): 0.0077 µg/mL; FC vs v1.2 (SARS-CoV S glycoprotein [7]): 116 fold
B4	–	0.0112	< 0.02	689	–
B5	~0.02	–	–	–	–
B6	~0.02	–	0.07	–	–
